The target in one experiment is rat NPR-A (rat) (UniProt P18910). The experiment in a line: cell-based or functional assay.
Another experiment has as its target rat NPR-B (rat) (UniProt P16067). The experiment in a line: cell-based or functional assay.

This passage reports EC50, fluorescence signal of rat NPR-A / CNGA2 (cGMP biosensor) / GCaMP6 CHO reporter cells and EC50, luminescence signal of rat NPR-B reporter cells results from US20250361282A1.

Chain of rat NPR-A (rat) (P18910 29-1057): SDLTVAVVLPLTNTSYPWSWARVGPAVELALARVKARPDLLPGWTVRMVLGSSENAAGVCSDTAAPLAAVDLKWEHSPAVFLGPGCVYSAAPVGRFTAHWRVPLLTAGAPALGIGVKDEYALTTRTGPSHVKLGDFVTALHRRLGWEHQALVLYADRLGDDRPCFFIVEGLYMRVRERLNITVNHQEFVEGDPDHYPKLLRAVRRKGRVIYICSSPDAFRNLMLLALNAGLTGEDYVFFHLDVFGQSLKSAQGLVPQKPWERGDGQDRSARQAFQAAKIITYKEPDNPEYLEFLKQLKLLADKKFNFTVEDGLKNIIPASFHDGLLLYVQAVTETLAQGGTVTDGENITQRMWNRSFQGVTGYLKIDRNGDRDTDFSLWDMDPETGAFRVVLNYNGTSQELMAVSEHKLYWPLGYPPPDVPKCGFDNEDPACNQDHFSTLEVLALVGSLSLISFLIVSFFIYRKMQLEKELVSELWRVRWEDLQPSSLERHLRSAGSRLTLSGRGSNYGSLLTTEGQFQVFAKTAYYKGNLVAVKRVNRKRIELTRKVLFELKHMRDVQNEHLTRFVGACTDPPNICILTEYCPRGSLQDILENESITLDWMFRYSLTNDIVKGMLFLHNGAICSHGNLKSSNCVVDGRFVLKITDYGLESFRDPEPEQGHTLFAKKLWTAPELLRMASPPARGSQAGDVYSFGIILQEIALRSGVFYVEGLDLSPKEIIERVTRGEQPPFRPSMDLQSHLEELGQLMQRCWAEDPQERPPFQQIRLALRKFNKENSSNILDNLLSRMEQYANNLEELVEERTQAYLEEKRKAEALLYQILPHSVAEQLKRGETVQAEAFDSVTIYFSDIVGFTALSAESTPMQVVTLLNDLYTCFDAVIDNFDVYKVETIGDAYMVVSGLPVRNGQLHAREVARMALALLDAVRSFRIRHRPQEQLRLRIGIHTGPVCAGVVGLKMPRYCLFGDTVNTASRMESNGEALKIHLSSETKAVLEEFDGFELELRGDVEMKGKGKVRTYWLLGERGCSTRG
Chain of rat NPR-B (rat) (P16067 17-1047): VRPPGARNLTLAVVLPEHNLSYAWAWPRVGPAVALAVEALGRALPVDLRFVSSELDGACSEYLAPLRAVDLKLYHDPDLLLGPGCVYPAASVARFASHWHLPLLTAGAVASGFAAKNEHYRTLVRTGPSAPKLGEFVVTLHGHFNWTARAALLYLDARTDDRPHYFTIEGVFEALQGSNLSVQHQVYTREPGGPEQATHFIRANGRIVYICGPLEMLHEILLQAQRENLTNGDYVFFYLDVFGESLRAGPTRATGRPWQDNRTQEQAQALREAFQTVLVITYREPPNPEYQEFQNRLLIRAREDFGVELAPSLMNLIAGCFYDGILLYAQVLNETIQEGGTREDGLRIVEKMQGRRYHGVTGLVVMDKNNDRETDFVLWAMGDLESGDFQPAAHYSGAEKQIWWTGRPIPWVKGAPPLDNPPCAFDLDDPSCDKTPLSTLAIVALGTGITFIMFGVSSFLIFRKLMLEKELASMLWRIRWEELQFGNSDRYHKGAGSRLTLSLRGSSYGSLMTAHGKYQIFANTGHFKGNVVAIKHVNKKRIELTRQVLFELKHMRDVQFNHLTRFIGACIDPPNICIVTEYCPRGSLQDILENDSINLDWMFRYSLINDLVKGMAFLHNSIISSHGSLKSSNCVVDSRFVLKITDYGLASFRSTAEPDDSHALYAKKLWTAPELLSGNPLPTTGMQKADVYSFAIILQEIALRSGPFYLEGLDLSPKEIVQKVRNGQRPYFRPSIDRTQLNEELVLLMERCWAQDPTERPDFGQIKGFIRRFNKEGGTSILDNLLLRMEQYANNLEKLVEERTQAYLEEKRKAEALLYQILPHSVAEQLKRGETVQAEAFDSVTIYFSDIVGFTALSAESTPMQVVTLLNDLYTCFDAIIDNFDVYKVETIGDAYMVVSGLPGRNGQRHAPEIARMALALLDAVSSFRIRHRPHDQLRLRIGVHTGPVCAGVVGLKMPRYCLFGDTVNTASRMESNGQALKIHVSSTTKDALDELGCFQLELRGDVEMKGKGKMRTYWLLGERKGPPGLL

The substance “BNP (Bachem, H-5968) (from UniProt P13205 90-121) (peptide)” gave an EC50, fluorescence signal of rat NPR-A / CNGA2 (cGMP biosensor) / GCaMP6 CHO reporter cells with rat NPR-A (rat) of 2.9 nM.

Substance “CNP (Bachem, H-1296) (from UniProt P23582 105-126) (peptide)” registered an EC50, luminescence signal of rat NPR-B reporter cells with rat NPR-B (rat) of 0.024 nM.

As to “ANP (Bachem, H-2100) (from UniProt P01161 123-150) (peptide)”, the EC50, fluorescence signal of rat NPR-A / CNGA2 (cGMP biosensor) / GCaMP6 CHO reporter cells in the experiment with rat NPR-A (rat) turned out to be 0.22 nM.
